Target: Angiotensin-II (Rattus norvegicus)
Test: radioligand

- Kd: 2.8 nM
B1: Angiotensin II type-1 receptor (AT1R), P25095 (protein)
chain: MALNSSAEDGIKRIQDDCPKAGRHSYIFVMIPTLYSIIFVVGIFGNSLVVIVIYFYMKLKTVASVFLLNLALADLCFLLTLPLWAVYTAMEYRWPFGNHLCKIASASVSFNLYASVFLLTCLSIDRYLAIVHPMKSRLRRTMLVAKVTCIIIWLMAGLASLPAVIHRNVYFIENTNITVCAFHYESRNSTLPIGLGLTKNILGFLFPFLIILTSYTLIWKALKKAYEIQKNKPRNDDIFRIIMAIVLFFFFSWVPHQIFTFLDVLIQLGVIHDCKISDIVDTAMPITICIAYFNNCLNPLFYGFLGKKFKKYFLQLLKYIPPKAKSHSSLSTKMSTLSYRPSDNMSSSAKKPASCFEVE
